Experimental data taken from patent US20220073617A1 (Five Prime, published 2022).
Where a chain is given by its changes, count along the chain named. Numbers in names are those of the source. One block for each binder: values may come before it.

Key:
[1] = target: T1, avidin (ThermoFisher Scientific catalog #21128) (UniProt P02701 25-152); assay: SPR pH 6.0 and 7.4
[2] = target: T2, monovalent hVISTA-ECD (amino acids 32-193 of SEQ ID NO: 1 with a 7xHis tail) (human, UniProt Q9H7M9 33-193); assay: SPR (FIG. 19C)
T2 construct: analyte of the SPR assays; also called huVISTA-His; hVISTA-His

[3] = target: T3, human VISTA-Fc (hVISTA extracellular domain, amino acids 33-194 of SEQ ID NO: 1, linked to an Fc domain) (human, UniProt Q9H7M9 33-194); assay: BLI
T3 construct: also called WT VISTA; hVISTAFc
T3 sequence: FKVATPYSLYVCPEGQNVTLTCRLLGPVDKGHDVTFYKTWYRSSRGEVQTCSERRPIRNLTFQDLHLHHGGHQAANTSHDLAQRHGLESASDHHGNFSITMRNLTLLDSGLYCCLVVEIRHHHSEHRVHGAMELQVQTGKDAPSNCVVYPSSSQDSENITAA

[4] = target: T2, monovalent hVISTA-ECD (amino acids …); assay: SPR 37C
cyno VISTA-ECD (His tag) [5] = target: T4, cyno VISTA-ECD (His tag) (cynomolgus macaque, UniProt Q9H7M9 33-193 (human entry)); assay: SPR 37C
T4 construct: also called cyVISTA-His
T4 chain: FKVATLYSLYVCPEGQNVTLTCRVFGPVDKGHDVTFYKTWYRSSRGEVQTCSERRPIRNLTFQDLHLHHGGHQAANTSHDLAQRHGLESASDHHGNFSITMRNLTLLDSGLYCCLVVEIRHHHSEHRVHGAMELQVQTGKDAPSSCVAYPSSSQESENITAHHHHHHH

[6] = target: T2, monovalent hVISTA-ECD (amino acids …); assay: SPR 37C pH 6.0
cyno VISTA-ECD (His tag) [7] = target: T4, cyno VISTA-ECD (His tag); assay: SPR 37C pH 6.0
[8] = target: T2, monovalent hVISTA-ECD (amino acids …); assay: SPR 37C pH 7.4
cyno VISTA-ECD (His tag) [9] = target: T4, cyno VISTA-ECD (His tag); assay: SPR 37C pH 7.4
[10] = target: T1, avidin (ThermoFisher Scientific catalog …); assay: SPR 25C pH 6.0 and 7.4
Protocol: (§1) The binding specificity of the '029, '761 and '767 clones to VISTA and to other high pI proteins was evaluated by SPR at neutral and acidic pH using a Biacore® T100 instrument (GE Healthcare). Protein A (ThermoFisher Scientific catalog #21181) was diluted to 20 ug/ml in 10 mM sodium acetate pH 4.5 and immobilized onto flow cells of a CM3 biosensor following the manufacturer's amine coupling protocol (GE Healthcare), targeting 800 RU immobilization density of Protein A per flow cell. SPR experiments were conducted at 25° C. using PBST (137 mM sodium chloride, 2.7 mM potassium chloride, 10 mM phosphate buffer, 0.05% Tween 20) running buffer at pH 7.4 and 6.0. Antibodies (formatted as IgG1.3 antibodies) were diluted to 50 nM in PBST pH 7.4, and were captured across active biosensor flow cells at 5 ul/min for 60 seconds. […] Two 15 second injections of 10 mM glycine pH 1.5 were used to regenerate the Protein A capture surface between assay cycles. Reference flow cell and 0 nM blank-subtracted sensorgrams were inspected using Biacore® T200 Evaluation Software v.2.0. The results are shown in […]

[11] = target: BSA (Calbiochem catalog #126593) (UniProt P02769 25-607); assay: SPR 25C pH 6.0 and 7.4
Protocol: as §1

[12] = target: T2, monovalent hVISTA-ECD (amino acids …); assay: SPR 37C; remark: listed apart in the source
Protocol: For this assay, '029, '761 and '767 were reformatted as hIgG1f isotype and were expressed as both standard hIgG1f and in hIgG1f afucosylated formats to compare against the hIgG1.3f Fc. An SPR kinetics assay was conducted to measure koff and KD binding affinity measurements for VISTA Abs at acidic and physiological pH using a Biacore® T100 instrument (GE Healthcare). Protein A (ThermoFisher Scientific catalog #21181) was diluted to 20 μg/ml in 10 mM sodium acetate pH 4.5 and immobilized onto flow cells of a CM5 biosensor following the manufacturer's amine coupling protocol (GE Healthcare), targeting 2,000 RU immobilization density of Protein A per flow cell. […] Antibodies were diluted to 25 nM in PBST pH 7.4, and were captured across active biosensor flow cells at 5 ul/min for 45 seconds. […] Two 15 second injections of 10 mM glycine pH 1.5 were used to regenerate the Protein A capture surface between assay cycles. Rate constants ka (kₒₙ) and kd (koff) were derived from reference flow cell and 0 nM blank-subtracted sensorgrams, and were fit to a 1:1 binding model in Biacore® T200 Evaluation Software v.2.0. The affinity constant, KD was calculated as the ratio of rate constants koff/kₒₙ for each VISTA antibody. Ratios of koff and KD at pH 7.4/pH 6.0 were calculated to compare off-rate and affinity improvement at acidic pH relative to physiological pH.

[13] = target: T5, human VISTA on cells (human monocytes, AML3 cells, 293T/HEK293 cells expressing full-length human VISTA) (human, UniProt Q9H7M9 33-311); assay: cell-based or functional assay
T5 sequence: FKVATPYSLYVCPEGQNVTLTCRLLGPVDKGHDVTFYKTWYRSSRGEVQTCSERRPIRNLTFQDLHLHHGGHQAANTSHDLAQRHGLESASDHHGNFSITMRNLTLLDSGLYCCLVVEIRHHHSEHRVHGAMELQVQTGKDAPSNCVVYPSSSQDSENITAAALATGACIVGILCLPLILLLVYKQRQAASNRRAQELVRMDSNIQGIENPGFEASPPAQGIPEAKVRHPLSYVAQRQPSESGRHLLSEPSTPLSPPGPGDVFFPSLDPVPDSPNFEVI

[14] = target: T2, monovalent hVISTA-ECD (amino acids …); assay: SPR 37C, 100 nM hVISTA-ECD, pH 7.4, 6.7, 6.0

T1 sequence (P02701 25-152 limits assumed): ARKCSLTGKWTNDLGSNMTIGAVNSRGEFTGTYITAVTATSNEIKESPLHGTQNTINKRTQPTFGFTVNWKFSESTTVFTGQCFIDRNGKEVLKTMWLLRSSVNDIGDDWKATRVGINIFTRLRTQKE
Chain of BSA (Calbiochem catalog #126593) (P02769 25-607 limits assumed): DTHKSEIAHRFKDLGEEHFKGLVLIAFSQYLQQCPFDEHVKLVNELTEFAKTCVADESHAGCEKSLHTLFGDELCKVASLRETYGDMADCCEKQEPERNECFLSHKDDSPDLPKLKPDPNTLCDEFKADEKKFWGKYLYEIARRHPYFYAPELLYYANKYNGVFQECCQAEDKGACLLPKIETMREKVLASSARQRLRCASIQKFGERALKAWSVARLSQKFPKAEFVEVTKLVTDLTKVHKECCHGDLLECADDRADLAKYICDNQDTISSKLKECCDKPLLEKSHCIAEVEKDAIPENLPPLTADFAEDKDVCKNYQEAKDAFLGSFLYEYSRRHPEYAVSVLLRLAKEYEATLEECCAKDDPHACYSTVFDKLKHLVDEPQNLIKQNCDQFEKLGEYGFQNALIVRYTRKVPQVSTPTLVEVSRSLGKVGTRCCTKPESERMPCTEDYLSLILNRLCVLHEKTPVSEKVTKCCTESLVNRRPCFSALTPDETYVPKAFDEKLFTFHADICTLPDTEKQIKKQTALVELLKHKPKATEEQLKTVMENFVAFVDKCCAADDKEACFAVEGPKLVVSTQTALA

B1: VISTA.4.IgG1.3 (antibody, V domains shown)
VH: QVQLVESGGGLVKPGGSLRLSCAASGFTFSDYYMSWIRQAPGKGLEWVSYISNSGSPIYYADSVKGRFTISRDNAKNSLYLQMNSLRAEDTAVYYCARDLPGWYFDLWGRGTLVTVSS
VL: EIVLTQSPATLSLSPGERATLSCRASQSVSSYLAWYQQKPGQAPRLLIYDASNRATGIPARFSASGSGTDFTLTISSLEPEDFAVYYCQQRNNWPRTFGQGTKVEIKR
notes: also called 41F11
binding result [1]: no binding

B3: P1-070976 (41F11_VH_T28P/Y50W/S55E/D95H/L96E/P97E/Y100E; VK_A64G), IgG1.3 (antibody, V domains shown)
VH: B1 VH with T28P, Y50W, S56E, D99H, L100E, P101E, Y104E
VL: B1 VL with A64G
notes: also called acidic pH selective VISTA.4 progeny
fold higher affinity at pH 6.0 than at pH 7.4 [2]: 200 fold
binding result [1]: no binding

B4: P1-061029.IgG1.3 (antibody)
heavy: EVQLVESGGGLVQPGKSLRLSCAASGFTLDDYAMHWVRQAPGKGLEWVSGINWNSANIGYADSVKGRFTISRDNAKNSLYLQMNSLRTEDTALYYCAKVPGYSGGWIDAFDVWGQGTMVTVSSASTKGPSVFPLAPSSKSTSGGTAALGCLVKDYFPEPVTVSWNSGALTSGVHTFPAVLQSSGLYSLSSVVTVPSSSLGTQTYICNVNHKPSNTKVDKRVEPKSCDKTHTCPPCPAPEAEGAPSVFLFPPKPKDTLMISRTPEVTCVVVDVSHEDPEVKFNWYVDGVEVHNAKTKPREEQYNSTYRVVSVLTVLHQDWLNGKEYKCKVSNKALPAPIEKTISKAKGQPREPQVYTLPPSREEMTKNQVSLTCLVKGFYPSDIAVEWESNGQPENNYKTTPPVLDSDGSFFLYSKLTVDKSRWQQGNVFSCSVMHEALHNHYTQKSLSLSPG
light: not shown
notes: also called P1-061029 hIgG1.3f; parent
binding result [3]: binds
KD ratio (7.4/6) [4]: 9.1
kd ratio (7.4/6) [4]: 1.1
KD ratio (7.4/6) (cyno VISTA-ECD (His tag) [5]): 4.7
kd ratio (7.4/6) (cyno VISTA-ECD (His tag) [5]): 1.1
Kd [6]: 6.8 nM
koff [6]: 0.0066 s⁻¹
kon [6]: 980000 M⁻¹ s⁻¹
Kd (cyno VISTA-ECD (His tag) [7]): 10 nM
koff (cyno VISTA-ECD (His tag) [7]): 0.0062 s⁻¹
kon (cyno VISTA-ECD (His tag) [7]): 620000 M⁻¹ s⁻¹
Kd [8]: 62 nM
koff [8]: 0.0075 s⁻¹
kon [8]: 120000 M⁻¹ s⁻¹
Kd (cyno VISTA-ECD (His tag) [9]): 47 nM
koff (cyno VISTA-ECD (His tag) [9]): 0.0067 s⁻¹
kon (cyno VISTA-ECD (His tag) [9]): 140000 M⁻¹ s⁻¹
binding result [10]: no binding (tested: <=10 RU, 100-10 nM)
binding result [11]: no binding (tested: <=10 RU, 100-10 nM)

B5: P1-068761.IgG1.3 (antibody)
heavy: B4 heavy with D30E, Y32E, A56E, N57E, G104H, F110E
light: not shown
notes: also called P1-068761 hIgG1.3f
fold faster koff at pH 6.9 compared to pH 6.0 [12]: ≥ 10 fold
fold lower affinity at pH 6.45 compared to pH 6.0 [12]: ≥ 10 fold
fold lower affinity at pH 6.9 compared to pH 6.0 [12]: ≥ 100 fold
fold lower affinity at pH 7.4 compared to pH 6.0 [12]: ≥ 1000 fold
fold weaker KD at pH 6.9 compared to pH 6.0 [12]: ≥ 100 fold
selectivity for pH 6 over pH 7.4 in KD [12]: > 2000 fold
selectivity for pH 6 over pH 7.4 in koff [12]: > 10 fold
KD ratio (7.4/6) [4]: 2120
kd ratio (7.4/6) [4]: 26.4
KD ratio (7.4/6) (cyno VISTA-ECD (His tag) [5]): 696
kd ratio (7.4/6) (cyno VISTA-ECD (His tag) [5]): 21.2
Kd [6]: 4.1 nM
kon [6]: 350000 M⁻¹ s⁻¹
Kd (cyno VISTA-ECD (His tag) [7]): 7.9 nM
koff (cyno VISTA-ECD (His tag) [7]): 0.0017 s⁻¹
kon (cyno VISTA-ECD (His tag) [7]): 210000 M⁻¹ s⁻¹
Kd [8]: 8700 nM
koff [8]: 0.037 s⁻¹
kon [8]: 4300 M⁻¹ s⁻¹
Kd (cyno VISTA-ECD (His tag) [9]): 5500 nM
koff (cyno VISTA-ECD (His tag) [9]): 0.036 s⁻¹
kon (cyno VISTA-ECD (His tag) [9]): 6500 M⁻¹ s⁻¹
binding result [10]: no binding (tested: <=10 RU, 100-10 nM)
binding result [11]: no binding (tested: <=10 RU, 100-10 nM)

The next lines start with results.

binding result [1]: no binding
B2: P1-072315-1 (41F11_VH_T28P/Y50W/S55E/L96E/Y100E VK_A64G) (antibody, V domains shown)
VH: B1 VH with T28P, Y50W, S56E, L100E, Y104E
VL: EIVLTQSPATLSLSPGERATLSCRASQSVSSYLAWYQQKPGQAPRLLIYDASNRATGIPARFSGSGSGTDFTLTISSLEPEDFAVYYCQQRNNWPRTFGQGTKVEIK

binding result [14]: binds
B6: VISTA.5 (VISTA antibody 1, non-blocking antibody) (antibody, V domains shown)
VH: AVQLQESGPGLVRPSQSLSLTCTVTDYSITSDYAWNWIRQFPGSKLEWLGFIGYSGNTNYNPSLESRISITRHTSKNQFFLHLNSMTTEDTATYYCARSLYGGSHWYFDVWGAGTTVTVSS
VL: DIVLTQSPASLAVSLGQRATISCRGSESVEYYGTILMQWYQQKPGQPPKLLIYGASNVESGVPARFSGSGSGTDFSLNIHPVEEDDIAMYFCQQSRKVPWTFGGGTKLEIK
notes: also called VISTA mAb 1; mAb 1
EC50, AML3 viability (Cell Titer Glo), endolysosome-dependent antibody drug conjugate killing assay [13]: 0.485 µg/mL
